This passage reports FRET ratio and FRET efficiency results from paper PMC2248716.

Where two headings read alike, the source gives them in different places. Some results are limits rather than exact numbers.

What all share (assay): FRET or BRET
(In general: BRET reads energy transfer from a luciferase to a nearby fluorophore.)

For assay [1], the target named is NaV1.4_(IQ/AA)-EYFP (UniProt P15390).
Assay [2] deals with NaV1.4-EYFP (UniProt P15390).
For assay [3], the target named is NaV1.4-EYFP (UniProt P15390). This is another data set of the same source.
Assay [4] deals with NaV1.4-EYFP (UniProt P15390). This is another data set of the same source.
The target in assay [5] is NaV1.4-EYFP (UniProt P15390). This is another data set of the same source.
The target of assay [6] is NaV1.4-EYFP (UniProt P15390). This is another data set of the same source.

For the substance “ECFP-CaM (from UniProt P0DP23 1-149) (natural protein)”, the FRET ratio in assay [1] is less than 1; in assay [2], greater than 1; in assay [5] it was 2. For the same substance, the FRET efficiency came to 8.2% in assay [2]; 22.7% in assay [3]; 25.4% in assay [4]; 10.3% in assay [5]; 9.9% in assay [6].
